Measurements taken from article PMC314469, “Protein Interaction Networks by Proteome Peptide Scanning” (PLoS Biology, 2004).

T1: Boi1 SH3 (BOI1_YEAST), P38041
T1 chain: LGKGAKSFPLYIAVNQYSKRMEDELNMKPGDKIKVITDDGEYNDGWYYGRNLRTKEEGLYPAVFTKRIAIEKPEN

T2: Boi2 SH3 (BOI2_YEAST), P39969
T2 chain: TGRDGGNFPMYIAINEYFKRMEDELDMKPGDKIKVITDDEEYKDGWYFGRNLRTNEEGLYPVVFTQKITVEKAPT

T3: Myo5 SH3 (MYO5_YEAST), Q04439
T3 chain: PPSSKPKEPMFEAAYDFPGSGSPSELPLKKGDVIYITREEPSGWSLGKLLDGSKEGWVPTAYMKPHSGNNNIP

T4: Rvs167 SH3 (RV167_YEAST), P39743
T4 chain: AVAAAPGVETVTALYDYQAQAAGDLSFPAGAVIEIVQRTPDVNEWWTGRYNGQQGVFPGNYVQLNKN

T5: Yfr024 SH3 (LSB3_YEAST), P43603
T5 chain: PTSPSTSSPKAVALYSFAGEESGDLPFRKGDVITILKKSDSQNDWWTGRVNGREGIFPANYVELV

T6: Yhr016c SH3 (YSC84_YEAST), P32793
T6 chain: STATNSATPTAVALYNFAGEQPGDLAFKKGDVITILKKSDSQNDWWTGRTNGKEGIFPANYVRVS


What was measured:
Assay in all cases: SPOT array
[1] = target: T1, Boi1 SH3 (BOI1_YEAST), P38041
[2] = target: T2, Boi2 SH3 (BOI2_YEAST), P39969
[3] = target: T3, Myo5 SH3 (MYO5_YEAST), Q04439
[4] = target: T4, Rvs167 SH3 (RV167_YEAST), P39743
[5] = target: Sho1 SH3 (SHO1_YEAST), P40073
Sho1 SH3 (SHO1_YEAST), P40073, sequence (P40073 295-366): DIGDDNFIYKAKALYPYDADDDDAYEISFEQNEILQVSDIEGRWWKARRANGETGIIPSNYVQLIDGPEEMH

[6] = target: T5, Yfr024 SH3 (LSB3_YEAST), P43603
[7] = target: T6, Yhr016c SH3 (YSC84_YEAST), P32793

Row | Binder | normalised SPOT signal, Boehringer light units (BLU); mean over the file's lines of this peptide [1] | normalised SPOT signal, Boehringer light units (BLU); mean over the file's lines of this peptide [2] | normalised SPOT signal, Boehringer light units (BLU); mean over the file's lines of this peptide [3] | normalised SPOT signal, Boehringer light units (BLU); mean over the file's lines of this peptide [4] | normalised SPOT signal, Boehringer light units (BLU); mean over the file's lines of this peptide [5] | normalised SPOT signal, Boehringer light units (BLU); mean over the file's lines of this peptide [6] | normalised SPOT signal, Boehringer light units (BLU); mean over the file's lines of this peptide [7]
1 | YVNAKLDPSLPSQY [YDR147W 90-103] | 71.4 | 10.8 | 97.1 | 41.1 | 29.3 | 91.6 | 17.8
2 | ADDLKYIPPIPQDF [YOR264W 26-39] | 133 | 15.8 | 86.7 | 69.2 | 59.5 | 6 | 16.1
3 | YVVKKNFPVSPNYT [YMR015C 408-421] | 234 | 28.9 | 194 | 33.5 | 332 | 163 | 39.5
4 | AFVPKRKPSLPQLA [YLR371W 185-198] | 2730 | 16.6 | 1740 | 294 | 78.9 | 718 | 47.2
5 | AFWWKKNPKTPSDY [YKL189W 13-26] | 110 | 64.4 | 65 | 72.6 | 900 | 303 | 112
6 | AALVKFVPSKPMSV [YBR118W 397-410] | 107 | 79.2 | 281 | 106 | 32.5 | 184 | 55.1
7 | YWGKKFEPERPFEF [YJR137C 1187-1200] | 678 | 266 | 385 | 350 | 460 | 1160 | 324
8 | YYYYKHYPNMPPIN [YMR313C 453-466] | 227 | 273 | 288 | 310 | 59.1 | 391 | 253
9 | YSTNRGIPARPSKD [YPL073C 79-92] | 534 | 107 | 271 | 8430 | 179 | 17300 | 5100
10 | YVNPRNLPSVPNGL [YLR418C 264-277] | 174 | 59.5 | 180 | 490 | 2350 | 952 | 765

Other lines, results leading:

Row | normalised SPOT signal, Boehringer light units (BLU); mean over the file's lines of this peptide [1] | normalised SPOT signal, Boehringer light units (BLU); mean over the file's lines of this peptide [2] | normalised SPOT signal, Boehringer light units (BLU); mean over the file's lines of this peptide [3] | normalised SPOT signal, Boehringer light units (BLU); mean over the file's lines of this peptide [4] | normalised SPOT signal, Boehringer light units (BLU); mean over the file's lines of this peptide [5] | normalised SPOT signal, Boehringer light units (BLU); mean over the file's lines of this peptide [6] | normalised SPOT signal, Boehringer light units (BLU); mean over the file's lines of this peptide [7] | Binder
11 | 1330 | 23.2 | 345 | 201 | 118 | 159 | 32.8 | YVYGRQDPKKPFFT [YNL137C 410-423]
12 | 155 | 30.2 | 102 | 99.2 | 39.3 | 2 | 8.4 | AEIVKLTPKNPFYK [YGL056C 180-193]
13 | 925 | 42.3 | 389 | 4 | 173 | 44.4 | 0 | AERAKKAPSLPEGQ [YJR016C 376-389]
14 | 94.5 | 54.3 | 188 | 115 | 138 | 94.4 | 99.5 | YSYLRLLPWWPSLA [YJL083W 456-469]
15 | 17.5 | 17.8 | 15900 | 163 | 63.5 | 330 | 32.3 | YVKERRPPPPPPLL [YLR425W 99-112]
16 | 418 | 52.6 | 188 | 25.5 | 51.5 | 115 | 74.6 | AFYYKYYPVEPNSN [YFR020W 150-163]
